Assay results as given in PMC6199135, “Differing isoforms of the cobalamin binding photoreceptor AerR oppositely regulate photosystem expression” (eLife, 2018).

B1: LAerR (long isoform of AerR) (natural protein)
chain: MNGVAELQTVLVNRMVELATGPELGAMDLLFDEFRAAHVPVEEMATHYIPEAARQIGAAWDSDRIGFAQVTIAISRLQELLHALQTLVTADSVGCANGATVLLIVPPGEQHTLGALIVAMELRRRGVSVRIVFAPGLSDLSRLMATTRFDAALITVGSMDRVEICAKLVKTLSSLTKGRMRVAIGGAIVSQRAEALARTGADLVTNDLSLVISEFSLV

Key:
[1] = target: CrtJ (Rhodobacter capsulatus) (UniProt P26167); assay: MST; Monolith NT.115; RED-NHS-labeled CrtJ kept constant (200 or 500 nM), AerR varied from µM to nM; 20 mM Tris-HCl pH 8.0, 200 mM NaCl; AerR with bound hydroxyl-Cbl (OH-Cbl)
[2] = target: CrtJ (Rhodobacter capsulatus) (UniProt P26167); assay: MST; Monolith NT.115; RED-NHS-labeled CrtJ kept constant (200 or 500 nM), AerR varied from µM to nM; 20 mM Tris-HCl pH 8.0, 200 mM NaCl; SAerR with bound Adenosyl-Cbl (Ado-Cbl)
[3] = target: T1, CrtJ (Rhodobacter capsulatus, UniProt P26167 1-469, labeled using RED-NHS protein labeling kit (Nanotemper)); assay: MST; Monolith NT.115; RED-NHS-labeled CrtJ kept constant (200 or 500 nM), AerR varied from µM to nM; 20 mM Tris-HCl pH 8.0, 200 mM NaCl; AerR with bound hydroxyl-Cbl (OH-Cbl); details: both partners purified
T1 construct: CrtJ, redox-responding transcription factor (aerobic repressor of photosystem genes) of Rhodobacter capsulatus; also called SUMO-CrtJ; PpsR (name in some other species); source: recombinant protein from plasmid pSUMO-CrtJ (PMID: 22715852)
T1 sequence (looked up): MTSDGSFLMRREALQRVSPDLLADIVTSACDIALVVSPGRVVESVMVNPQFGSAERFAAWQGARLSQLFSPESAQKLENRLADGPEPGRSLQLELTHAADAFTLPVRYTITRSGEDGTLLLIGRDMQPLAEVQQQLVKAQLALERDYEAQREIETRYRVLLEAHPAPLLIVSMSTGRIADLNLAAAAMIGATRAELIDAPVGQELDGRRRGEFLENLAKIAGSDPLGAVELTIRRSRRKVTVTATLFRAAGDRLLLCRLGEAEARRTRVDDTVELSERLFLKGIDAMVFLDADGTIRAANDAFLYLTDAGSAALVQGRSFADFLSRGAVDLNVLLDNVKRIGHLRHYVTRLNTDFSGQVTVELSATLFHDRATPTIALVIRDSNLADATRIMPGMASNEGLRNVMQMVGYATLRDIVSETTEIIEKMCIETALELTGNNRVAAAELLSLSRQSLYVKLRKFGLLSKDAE

| Molecule | EC50 [1] [nM] | EC50 [2] [nM] | EC50 [3] [nM] |
| --- | --- | --- | --- |
| SAerR (short isoform of AerR) (natural protein) | 2100 | 2100 |  |
| B1 |  |  | 7800 ± 1200 |
